Laboratory results published in US20170319675A1 (IMMATICS BIOTECHNOLOGIES, published 2017).

Target: T1, HLA-A*0201 (human)
T1 construct: also called peptide-receptive MHC molecules; MHC class I
Experiment: UV-ligand exchange; anti-b2m ELISA
Source text: Candidate peptides for the vaccines according to the present invention were further tested for immunogenicity by in vitro priming assays. The individual peptide-MHC complexes required for these assays were produced by UV-ligand exchange, where a UV-sensitive peptide is cleaved upon UV-irradiation, and exchanged with the peptide of interest as analyzed. Only peptide candidates that can effectively bind and stabilize the peptide-receptive MHC molecules prevent dissociation of the MHC complexes. To determine the yield of the exchange reaction, an ELISA was performed based on the detection of the light chain (β2m) of stabilized MHC complexes.
Peptide-MHC monomers of the UV-exchange reaction were diluted 100 fold in blocking buffer. Samples were incubated for 1 h at 37° C., washed four times, incubated with 2 μg/ml HRP conjugated anti-β2m for 1 h at 37° C., washed again and detected with TMB solution that is stopped with […]. Absorption was measured at 450 nm.

B1: SAMSN1-001 (peptide)
peptide: RLLAAENFL
Question: How did the “Average exchange yield in %” value turn out when B1 was run?
Answer: 47%
